Experimental findings from paper PMC7196632, “NAD^+ biosynthesis in bacteria is controlled by global carbon/nitrogen levels via PII signaling” (The Journal of Biological Chemistry, 2020) are described below.

The target in data set [1] is N-terminal His-tagged GlnZ protein of Azospirillum brasilense (Azospirillum brasilense) (UniProt P70731). Nature of the data set: BLI; Octet K2; His-GlnZ immobilised on Ni-NTA sensor tip, AbNadE2 as analyte, with ADP (methods: 50 mM Tris-HCl pH 7, 50 mM KCl, 10 mM MgCl2, 2 mM ADP, 2.5 mM NAD+, 1 mg/ml BSA).
The target is the same in data set [2]. Nature of the data set: BLI; Octet K2; His-GlnZ (2 ug/ml) immobilised on Ni-NTA sensor tip, AbNadE2 30-2000 nM (dimer) as analyte, with ATP (legend: 5 mM MgCl2, 1 mM ATP; methods: 50 mM Tris-HCl pH 7, 50 mM KCl, 10 mM MgCl2, 2 mM ATP, 2.5 mM NAD+, 1 mg/ml BSA). In general terms: Biolayer interferometry detects binding as a change in optical thickness at a sensor tip.

The next data set addresses T1, ScNadE2 (ScNadE^Gln) (Synechocystis sp. PCC 6803, UniProt P74292).
T1 construct: gene nadE; full-length, N-terminal His-tag removed with TEV protease, recombinant from E. coli (pTEV5-based pASnadESc); dimer
T1 sequence (P74292 1-558): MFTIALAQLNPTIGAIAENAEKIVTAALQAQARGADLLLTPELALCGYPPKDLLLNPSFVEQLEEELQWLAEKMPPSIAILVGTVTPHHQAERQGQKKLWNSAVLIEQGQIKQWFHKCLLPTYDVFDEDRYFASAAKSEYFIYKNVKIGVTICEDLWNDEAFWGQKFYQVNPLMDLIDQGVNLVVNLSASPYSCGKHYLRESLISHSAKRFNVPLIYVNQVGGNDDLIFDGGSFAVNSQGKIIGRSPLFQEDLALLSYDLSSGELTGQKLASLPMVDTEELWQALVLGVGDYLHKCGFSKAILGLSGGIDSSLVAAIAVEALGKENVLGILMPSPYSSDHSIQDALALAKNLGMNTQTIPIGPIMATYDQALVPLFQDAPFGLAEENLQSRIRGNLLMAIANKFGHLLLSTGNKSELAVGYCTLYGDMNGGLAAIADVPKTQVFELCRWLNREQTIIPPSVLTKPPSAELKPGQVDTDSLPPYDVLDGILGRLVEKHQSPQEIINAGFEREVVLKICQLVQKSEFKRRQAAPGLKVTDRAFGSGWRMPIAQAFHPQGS
Nature of the data set: discontinuous assay of PPi release (EnzChek pyrophosphate kit). In kind it is biochemical. Particulars: no PII (2 uM BSA); 100 nM enzyme, 4 mM ATP, 2 mM NaAD, 4 mM L-glutamine, 10 mM MgCl2, pH 8, 30 C.

A further data set has as its target T2, HsNadE2 (HsNadE2^Gln) (Herbaspirillum seropedicae, UniProt D8IX05).
T2 construct: gene nadE; full-length, His-tag removed by thrombin, recombinant from E. coli; dimer
T2 sequence (D8IX05 1-565): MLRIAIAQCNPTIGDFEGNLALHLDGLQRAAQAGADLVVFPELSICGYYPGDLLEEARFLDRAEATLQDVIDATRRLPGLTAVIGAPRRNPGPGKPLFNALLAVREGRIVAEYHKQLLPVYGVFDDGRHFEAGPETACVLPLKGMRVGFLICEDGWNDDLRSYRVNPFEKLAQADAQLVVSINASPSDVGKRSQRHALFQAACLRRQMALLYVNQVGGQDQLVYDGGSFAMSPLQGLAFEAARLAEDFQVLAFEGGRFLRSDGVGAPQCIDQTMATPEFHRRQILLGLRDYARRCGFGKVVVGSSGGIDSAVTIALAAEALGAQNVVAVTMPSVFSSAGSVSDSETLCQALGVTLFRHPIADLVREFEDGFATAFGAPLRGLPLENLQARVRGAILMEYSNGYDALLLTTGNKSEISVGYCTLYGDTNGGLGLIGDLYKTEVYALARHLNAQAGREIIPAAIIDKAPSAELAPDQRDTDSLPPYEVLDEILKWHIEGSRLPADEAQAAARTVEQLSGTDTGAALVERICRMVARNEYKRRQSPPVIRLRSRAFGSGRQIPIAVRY
Described as above. In kind it is biochemical. The conditions noted are these: no PII (2 uM BSA); 100 nM enzyme, 4 mM ATP, 2 mM NaAD, 4 mM L-glutamine, 10 mM MgCl2, pH 8, 30 C.

Data set [3] addresses T3, GlnZ-AbNadE2 complex (NAD+ site on AbNadE2) (Azospirillum baldaniorum, UniProt A0A9P1JPD2).
T3 construct: gene nadE; with Nitrogen regulatory protein P-II 2
Described as above. The class given is biochemical.

The next data set addresses T4, AbNadE2 (AbNadE2^Gln) (Azospirillum baldaniorum, UniProt A0A9P1JPD2).
T4 construct: gene nadE; full-length, untagged ('native AbNadE2'), recombinant from E. coli, purified as described previously; homodimer
T4 sequence (A0A9P1JPD2 1-554): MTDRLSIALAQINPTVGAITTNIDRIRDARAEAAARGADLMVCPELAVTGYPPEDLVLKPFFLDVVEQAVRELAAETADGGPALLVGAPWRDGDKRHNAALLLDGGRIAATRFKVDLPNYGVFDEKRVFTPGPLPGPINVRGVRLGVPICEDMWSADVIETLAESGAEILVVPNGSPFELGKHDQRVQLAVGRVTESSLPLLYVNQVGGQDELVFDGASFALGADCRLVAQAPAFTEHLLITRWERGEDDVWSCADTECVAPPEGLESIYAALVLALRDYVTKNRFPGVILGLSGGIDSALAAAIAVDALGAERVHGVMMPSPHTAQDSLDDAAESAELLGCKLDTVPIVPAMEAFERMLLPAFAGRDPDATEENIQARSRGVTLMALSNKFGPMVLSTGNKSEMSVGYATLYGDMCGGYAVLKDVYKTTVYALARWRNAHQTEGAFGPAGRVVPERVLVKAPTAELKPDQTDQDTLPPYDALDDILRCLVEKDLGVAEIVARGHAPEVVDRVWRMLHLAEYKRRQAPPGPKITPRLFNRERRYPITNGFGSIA
The data set is described as above. The conditions noted are these: read-out: IC50 (also called Ki). In kind it is biochemical.

In data set [4] the target is Azospirillum brasilense type 2 glutamine-dependent NAD synthetase AbNadE2, native (untagged), purified (Azospirillum brasilense).
Data set [5] has as its target T5, GlnZ (with AbNadE2; 2-OG site on GlnZ) (Azospirillum brasilense, UniProt P70731).
T5 construct: GlnZ homotrimer, non-uridylylated (native in activity assay; N-terminal His-tag kept in BLI), recombinant from E. coli; with Glutamine-dependent NAD(+) synthetase
Nature of the data set: biolayer interferometry, inhibition of GlnZ-AbNadE2 association. In kind it is binding. As to the method: biolayer interferometry, inhibition of GlnZ-AbNadE2 association on GlnZ (with AbNadE2; 2-OG site on GlnZ) | The binding curves and Ki were determined using the manufactureŕs software

For data set [6], the target named is T5, GlnZ (with AbNadE2; 2-OG site on GlnZ). Nature of the data set: loss of GlnZ relief of NAD+ inhibition of AbNadE2 (PPi release). In kind it is biochemical.
Substrate in the data set “purified protein”: NC(=O)CC[C@H](N)C(=O)O
Nature of the data set: purified protein. Particulars: without NAD+, pH 8, 30 C.

Substrate in data set [7]: Nc1ncnc2c1ncn2[C@@H]1O[C@H](COP(=O)(O)OP(=O)([O-])OC[C@H]2O[C@@H]([n+]3cccc(C(=O)O)c3)[C@H](O)[C@@H]2O)[C@@H](O)[C@H]1O
Nature of the data set: NAD synthetase activity, Michaelis-Menten fit. In kind it is biochemical, Azospirillum baldaniorum. The conditions noted are these: without NAD+, pH 8, 30 C.

Sequence of N-terminal His-tagged GlnZ protein of Azospirillum brasilense (Azospirillum brasilense) (P70731 entry or part of it): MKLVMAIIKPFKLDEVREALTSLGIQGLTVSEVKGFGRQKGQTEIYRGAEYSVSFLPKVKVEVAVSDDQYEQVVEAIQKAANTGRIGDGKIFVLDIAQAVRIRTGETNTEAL
T5 sequence (P70731 1-112, one chain of several): as the sequence (P70731 entry or part of it) above
T3 sequence (P70731 1-112 partner, one chain of several): as the sequence (P70731 entry or part of it) above
Sequence of Azospirillum brasilense type 2 glutamine-dependent NAD synthetase AbNadE2, native (untagged), purified (Azospirillum brasilense) (A0A0P0EJG6 entry or part of it): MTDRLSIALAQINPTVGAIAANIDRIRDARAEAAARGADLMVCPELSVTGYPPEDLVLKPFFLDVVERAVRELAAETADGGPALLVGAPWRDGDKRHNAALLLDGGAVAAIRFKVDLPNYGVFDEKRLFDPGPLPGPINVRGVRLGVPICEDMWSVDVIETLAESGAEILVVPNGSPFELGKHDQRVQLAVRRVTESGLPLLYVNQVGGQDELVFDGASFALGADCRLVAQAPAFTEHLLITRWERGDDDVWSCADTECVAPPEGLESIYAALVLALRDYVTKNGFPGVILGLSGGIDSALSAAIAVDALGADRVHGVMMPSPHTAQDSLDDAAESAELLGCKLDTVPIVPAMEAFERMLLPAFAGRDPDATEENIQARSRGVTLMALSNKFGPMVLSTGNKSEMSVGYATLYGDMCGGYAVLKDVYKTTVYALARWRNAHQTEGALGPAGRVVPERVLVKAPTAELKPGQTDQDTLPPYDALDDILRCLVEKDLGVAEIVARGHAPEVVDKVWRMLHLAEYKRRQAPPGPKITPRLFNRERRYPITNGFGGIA

“Azospirillum brasilense type 2 glutamine-dependent NAD synthetase AbNadE2, native (untagged), purified (enzyme)”: in data set [1], the Kd (in general, the free concentration of one partner at which half of the binding sites on the other are occupied at equilibrium, for simple one-to-one binding) was determined as 0.15 µM. In [2], the Kd was 0.3 µM; the koff (as a rule, a measure of how fast the partners let go of each other) was 0.0272 s⁻¹; the kon – broadly, the second-order rate constant of association – was determined as 90900 M⁻¹ s⁻¹.

Turning to `NC(=O)c1ccc[n+]([C@@H]2O[C@H](COP(=O)([O-])OP(=O)(O)OC[C@H]3O[C@@H](n4cnc5c(N)ncnc54)[C@H](O)[C@@H]3O)[C@@H](O)[C@H]2O)c1` [NAD^+], the “relative activity vs NAD+ concentration” value on ScNadE2 (ScNadE^Gln) is on record as “In both cases, NadE2^Gln was inhibited by NAD^+ in a dose-dependent manner”; at HsNadE2 (HsNadE2^Gln), “In both cases, NadE2^Gln was inhibited by NAD^+ in a dose-dependent manner”. In addition, the IC50 (commonly the midpoint of a concentration-inhibition curve) was found to be 2500 µM in data set [3] and 1000 µM at AbNadE2 (AbNadE2^Gln).

The molecule “N-terminal His-tagged GlnZ protein of Azospirillum brasilense (from UniProt P70731 1-112) (natural protein)” displayed an activation of AbNadE2 NAD synthetase activity (PPi formation) at 2.5 mM NAD+, 100 nM AbNadE2, GlnZ 0.25-10 uM (trimer); Kact in [4] of 640 nM.

Regarding `O=C(O)CCC(=O)C(=O)O` [2-oxoglutarate], in [5], the Ki (in general, the equilibrium dissociation constant of an inhibitor or competing ligand from its target) stood at 52.1 µM. Moreover, the IC50 in [6] came to 15.5 µM.

B1: AbNadE2 (AbNadE2^Gln) (Azospirillum baldaniorum) (protein)
chain: MTDRLSIALAQINPTVGAITTNIDRIRDARAEAAARGADLMVCPELAVTGYPPEDLVLKPFFLDVVEQAVRELAAETADGGPALLVGAPWRDGDKRHNAALLLDGGRIAATRFKVDLPNYGVFDEKRVFTPGPLPGPINVRGVRLGVPICEDMWSADVIETLAESGAEILVVPNGSPFELGKHDQRVQLAVGRVTESSLPLLYVNQVGGQDELVFDGASFALGADCRLVAQAPAFTEHLLITRWERGEDDVWSCADTECVAPPEGLESIYAALVLALRDYVTKNRFPGVILGLSGGIDSALAAAIAVDALGAERVHGVMMPSPHTAQDSLDDAAESAELLGCKLDTVPIVPAMEAFERMLLPAFAGRDPDATEENIQARSRGVTLMALSNKFGPMVLSTGNKSEMSVGYATLYGDMCGGYAVLKDVYKTTVYALARWRNAHQTEGAFGPAGRVVPERVLVKAPTAELKPDQTDQDTLPPYDALDDILRCLVEKDLGVAEIVARGHAPEVVDRVWRMLHLAEYKRRQAPPGPKITPRLFNRERRYPITNGFGSIA
notes: full-length, untagged ('native AbNadE2'), recombinant from E. coli, purified as described previously; homodimer
Regarding B1, the Km (in general, the substrate concentration at which the rate is half of its maximum) in “purified protein” is 720 µM; in data set [7], 80 µM.
